According to patent publication US6955900B1, “Methods for producing polypeptide binding sites, monoclonal antibodies and compositions thereof” (The Scripps Research Institute, priority 1993, dated 2005):

Legend:
αvβ3 = target: T1, αvβ3 (Homo sapiens, UniProt P05106+P06756); experiment: dissociation of 125I-ligand from purified αvβ3; details: two hour dissociation after four hours binding
T1 construct: human placentas were obtained, cut into small pieces and extracted; from tissue
Experimental: The binding of Fab 9 is shown as an example in this analysis, but its binding behavior was essentially identical to that of the MTF antibodies. The ability of ^125I-Fab 9 to dissociate from purified αvβ3 was compared to that of ^125I-vitronectin in purified ligand-receptor binding assays performed as described in Example 5B. Both ligands were incubated with purified αvβ3 for four hours. Then buffer containing radioligands was replaced with binding buffer lacking ligand to allow dissociation. An effort was also made to promote dissociation by adding 10 uM GRGDSP (SEQ ID NO 66) after the binding step. […] Following a two hour incubation to allow dissociation, buffer was removed and the amount of ^125I-ligand remaining bound to integrin was measured. The remaining bound ligand was compared to the amount of ligand bound at the beginning of the dissociation step.

M21 melanoma cells = experiment: adhesion of M21 melanoma cells to immobilized Fab or vitronectin; assay type: cell-based, human
Experimental: When Fab 9 that contained an RGD binding site was used in cell adhesion assays, it blocked the melanoma cell adhesion to immobilized vitronectin with an IC50 of 4 nM in contrast to the framework antibody pMT12 that had no effect on cell adhesion. […] This finding provides further evidence that Fab 9 is specific to beta 3 integrins. In similar assays, Fab 9 was compared to vitronectin in the ability to support cellular adhesion. Both proteins supported the binding of cells saturating at approximately 5 ug/ml of Fab or vitronectin.
This assay, performed as described in Example 4, was performed with whole cell adhesion assays using M21 melanoma cells because they adhere to RGD-ligands primarily via αvβ3. M21 cells were allowed to adhere to a concentration range from 1 to 10 ug/ml of immobilized Fab 9 and MTF-10.

T1 sequence (P06756 31-889 limits assumed): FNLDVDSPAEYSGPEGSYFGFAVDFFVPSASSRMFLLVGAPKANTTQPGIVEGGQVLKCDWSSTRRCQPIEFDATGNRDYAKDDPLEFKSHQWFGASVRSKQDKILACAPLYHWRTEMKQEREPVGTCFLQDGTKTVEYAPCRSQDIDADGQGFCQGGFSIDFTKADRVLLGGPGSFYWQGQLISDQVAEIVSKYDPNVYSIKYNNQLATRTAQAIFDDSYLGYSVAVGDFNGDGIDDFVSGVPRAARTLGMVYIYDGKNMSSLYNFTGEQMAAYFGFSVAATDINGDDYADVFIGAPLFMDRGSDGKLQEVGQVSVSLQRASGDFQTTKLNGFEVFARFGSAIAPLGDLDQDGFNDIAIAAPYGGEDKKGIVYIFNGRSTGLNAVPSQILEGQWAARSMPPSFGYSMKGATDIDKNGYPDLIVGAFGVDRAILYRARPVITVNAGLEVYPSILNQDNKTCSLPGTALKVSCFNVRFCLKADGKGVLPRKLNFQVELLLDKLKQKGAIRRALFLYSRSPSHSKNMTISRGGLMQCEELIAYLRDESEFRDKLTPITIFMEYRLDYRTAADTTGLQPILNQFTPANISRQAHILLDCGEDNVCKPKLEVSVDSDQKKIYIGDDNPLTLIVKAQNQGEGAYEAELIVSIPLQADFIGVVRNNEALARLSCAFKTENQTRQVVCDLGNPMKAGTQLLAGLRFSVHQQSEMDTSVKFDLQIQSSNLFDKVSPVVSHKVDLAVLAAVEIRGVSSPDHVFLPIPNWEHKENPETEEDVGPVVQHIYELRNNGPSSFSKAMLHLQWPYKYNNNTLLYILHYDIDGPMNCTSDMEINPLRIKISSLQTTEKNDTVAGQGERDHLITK
T1 sequence (P06756 891-1048 partner limits assumed): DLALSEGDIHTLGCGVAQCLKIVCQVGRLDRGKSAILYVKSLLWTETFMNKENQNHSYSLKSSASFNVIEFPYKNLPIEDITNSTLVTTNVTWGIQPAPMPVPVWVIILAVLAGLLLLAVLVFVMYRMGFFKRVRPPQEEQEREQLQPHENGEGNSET
T1 sequence (P05106 27-788): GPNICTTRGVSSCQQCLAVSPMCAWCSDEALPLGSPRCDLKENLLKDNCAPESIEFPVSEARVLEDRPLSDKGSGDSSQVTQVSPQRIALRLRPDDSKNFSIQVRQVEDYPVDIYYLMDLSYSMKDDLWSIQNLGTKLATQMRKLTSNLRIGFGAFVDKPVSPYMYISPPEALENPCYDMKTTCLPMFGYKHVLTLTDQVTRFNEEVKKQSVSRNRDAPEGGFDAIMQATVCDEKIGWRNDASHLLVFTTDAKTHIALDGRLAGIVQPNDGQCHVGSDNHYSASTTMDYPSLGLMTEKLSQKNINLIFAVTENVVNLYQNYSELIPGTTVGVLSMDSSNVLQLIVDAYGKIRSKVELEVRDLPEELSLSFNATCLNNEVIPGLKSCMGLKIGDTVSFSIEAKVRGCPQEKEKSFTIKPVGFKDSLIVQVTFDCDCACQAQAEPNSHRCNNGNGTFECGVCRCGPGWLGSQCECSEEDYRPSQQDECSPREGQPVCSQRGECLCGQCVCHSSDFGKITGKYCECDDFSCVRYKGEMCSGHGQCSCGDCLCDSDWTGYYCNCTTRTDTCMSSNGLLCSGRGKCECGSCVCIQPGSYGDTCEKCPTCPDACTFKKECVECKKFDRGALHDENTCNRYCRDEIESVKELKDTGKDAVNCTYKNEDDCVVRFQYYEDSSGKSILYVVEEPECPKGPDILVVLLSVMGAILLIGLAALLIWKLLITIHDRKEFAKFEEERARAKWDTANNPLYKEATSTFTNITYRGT

bound ligand that remained associated with αvβ3 (αvβ3): greater than 65%
Substance: vitronectin: natural high affinity ligand of αvβ3
coating concentration at which supported cell binding saturates (M21 melanoma cells): approximately 5 ug/ml
